In patent US20250340652A1 (CHENGDU DI AO PHARMACEUTICAL GROUP, published 2025):

Biological target: T1, CC1H, major antigenic region of PLA2R (human, UniProt Q13018 21-367)
T1 construct: Secreted from CHO-S cells, purified on Ni column; also called CCIh
Assay: indirect ELISA, CC1h coated at 2 ug/mL, anti-human IgG Fc HRP
Protocol: 30 μL of CC1h (2 μg/mL, diluted with 1*PBS) was added to the reaction wells of the ELISA plate, and the plate was sealed and incubated at 4° C. overnight. The plate was washed with PBST for 3 times, and the liquid in the wells was discarded. 5% PBSM was added to block the ELISA plate at room temperature for 2 hours. The plate was washed with PBST for 3 times by adding 30 μL of Abs (diluted with 1*PBS) to each well of the ELISA plate, and the plate was incubated at room temperature for 60 min. The plate was washed with PBST for 3 times, 30 μL of anti-human IgG Fc HRP (diluted with 1% PBSM at a ratio of 1:8000) was added to each well, and incubated at room temperature for 60 min. TMB was added and the reaction was stopped with 2M blocking solution and the OD value was detected at 450 nm. Recombinant Ipilimumab (Sanyou Biopharmaceuticals Co., Ltd.) was used as a negative control. The test results were illustrated in Table 2 as well as FIG. 4 and FIG. 5.

| Binder | EC50 [ng/mL] |
| --- | --- |
| B53 (antibody, human IgG4, kappa, V domains shown, also called P59387) VH: EVQLVETGGGVVQPGRSLRLSCAASGFTFSSYAMHWVRQAPGKGLEWVAVISYDGSNKYYADSVKGRFTISRDNSKNTLYLQMNSLRAEDTAVYYCARNRYGATDYWGQGTLVTVSS VL: NIQLTQSPSSLSASVGDRVTITCRASQGINSWLAWYQQKPGKAPKLLIYAASTLQSGVPSRFSGSGSGTDFTLTINSLQPEDFATYYCQQLNSFPFTFGPGTKVHIKR | 7.67 |
| B67 (antibody, human IgG4, kappa, V domains shown, also called P59388) VH: QITLKESGPGLVKPSGTLSLTCAVSGGSISSSNWWSWVRQPPGKGLEWIGEIYHSGSTNYNPSLKSRVTISVDKSKNQFSLKLSSVTAADTAVYYCARDDGWRYGSVYYYYMDVWGKGTTVTVSS VL: DIQLTQSPSSLSASVGDRVTITCRASQSIDDHLNWYQQKPGKVPKLLISSASTLQSGAPSRFSGSGYGTDFTLTISSLQVEDFATYYCQQSYSPPQTFGQGTKVEIKR | 5.02 |
| A67 (antibody, human IgG4, kappa, V domains shown, also called P59376) VH: QVQLVQSGGGVVQPGRSLRLPCAASGFTFSNYAMHWVRQAPGKGLEWVAVISYDGSKKYYADSVKGRFTISRDNSKNTLYLQVNSLRAEDTAVYYCATGYSSPWYGMDVWGQGTTVTVSS VL: NIQMTQSPSSLSASVGDRITITCRASQSVNSYVNWYQQTPGQAPKLLIYAASSVHNGVPVRFSGSRSGTEFILTISSLQPEDFVTYFCQQSFTSPWTFGQGTKLEMKR | 6.41 |
| B29 (antibody, human IgG4, kappa, V domains shown, also called P59385) VH: QVQLVQSGAEVKKPGSSVKVSCKASGDTFSSFAISWVRQAPGQGLEWMGTIIPLFTTPNYAQKFQGRVTITADESTRTAYMELSSLRSEDTAVYYCARGPERIAAAGYYYYYGMDVWGQGTTVTVSS VL: EIVMTQSPGTLSLSPGQRATLSCRASQSVSSSSLAWYQQKPGQAPRLLIHGASSRATGIPDRFSGSGSGTDFTLTISRLEPEDFAVYYCQQYGTSWTFGQGTKVEIKR | 3.85 |
| B20 (antibody, human IgG4, kappa, V domains shown, also called P59383) VH: QVQLLESGPGLVKPSETLSLTCTVSGDSISNYFWSWIRQSPGKGLEWIGYIHYSGTVSYNPSLRSRVTISIDTSKNQFSLKLSSVTAADTAVYYCARRGRIAAAGTGYYYYGMDVWGQGTTVTVSS VL: EIVMTQSPATLSLSPGERATLSCRASQSVSNYLAWYQQKPGQAPRLLIYGASSRATGIPDRFSGSGSGTDFTLTISRLEPEDFAVYYCQQYGSSLWTFGQGTKVEIKR | 5.36 |
| B16 (antibody, human IgG4, kappa, V domains shown, also called P59382) VH: QVQLVQSGGGLVQPGGSLRLSCAASGFTFSSYAMSWVRQAPGKGLEWVSAISGSGGSTYYADSVKGRFTISRDNPKNTLFLQMTSLRSEDTAMYYCARSYGNYFTYWGQGTLVTVSS VL: EIVLTQSPATLSLSPGERATLSCRASQSVSSYLAWYQQKPGQAPRLLIYDASNRATGIPARFSGSGSGTDFTLTISSLEPEDFAVYYCQQRSNWPPELTFGGGTKVEIKR | 6.67 |
| A8 (antibody, human IgG4, kappa, V domains shown, also called P59367) VH: QVQLVQSGAEVKKPGSSVKVSCKASGGTFSSYAISWVRQAPGQGLEWMGGIIPIFGTANYAQKFQGRVTMTRDTSTSTVYMELSSLRSEDTAVYYCARDSDFWSGYSSMDVWGQGTTVTVSS VL: DIVMTQSPLSLPVTLGQPASISCRSSQSLVHSDGNTYLNWFQQRPGQSPRRLIYKVSNRDSGVPDRFSGSGSGTDFTLKISRVEAEDVGVYYCMQGTQWPDTFGQGTKLEIKR | 4.81 |
| B24 (antibody, human IgG4, kappa, V domains shown, also called P59384) VH: EVQLVETGGGLVKPGGSLRLSCAASGFTFSSYSMNWVRQAPGKGLEWVSSISSSSSYIYYADSVKGRFTISRDNAKNSLYLQMNSLRAEDTAVYYCARGRRRDFDYWGQGTLVTVSS VL: DIQMTQSPSSLPASVGDRVTITCRASQGIGTFLAWYQQHLGKAPKLLISASSTVQRGVPSRFSGSGSGTEFTLTINSLQPEDFATYYCQQLNNYPRTFGQGTKVEIKR | 7.03 |

Now from value to binder:

| EC50 [ng/mL] | Binder |
| --- | --- |
| 8.09 | B123 (antibody, human IgG4, kappa, V domains shown, also called P59395) VH: QVQLQQWGAGLLKPSQTLSLTCTVSGGSISSGGYYWSWIRQHPGKGLEWIGYIYYSGSTYYNPSLKSRVTISVDTSKNQFSLKLSSVTAADTAVYYCARWDRVREGGRFSNAFDIWGQGTMVTVSS VL: NIQLTQSPSSLSASVGDRVTITCRASQGISTYLAWYQQKPGLAPKLLIYGASTLQSGVPSKFSGFGSGRDFTLTISSLQPEDIATYYCQQLNTYPPTFGQGTKLEIKR |
| 14.1 | A378 (antibody, human IgG4, kappa, V domains shown, also called P59380) VH: not shown VL: NIQMTQSPSSLTASVGDRITITCRASQGIRNSLAWYQQKPGTAPKLLVSAASKLQTGVPSRFSGSGSGTDYTLTISSLQTEDFATYYCQQYYGTPPTFGQGTKLEIKR |
| 7.71 | B83 (antibody, V domains shown, also called P59389) VH: EVQLLESGGGLVQPGGSLRLSCAASGFTFSSYAMSWVRQAPGKGLEWVSAISGSGGRTYYADSVKGRFTISRDNSKNTLYLQMNSLRAEDTAVYYCARVLQYSGTDDLDVWGRGTLVTVSS VL: not shown |
| 13.2 | A382 (antibody, human IgG4, kappa, V domains shown, also called P59381) VH: QVQLVQSGAEVKKPGASVKVSCKASGYTFTSYAMHWVRQAPGQRLEWMGWINAGNGNTKYSQKFQGRVTITRDTSASTAYMELSSLRSEDTAVYYCATSKSVWNFDYWGQGTLVTVSS VL: EIVLTQSPATLSLSPGERATLSCRASQGISSYLAWYQQKPGQAPRLLIYDASNRATGIPARFSGSGSGTDFTLTISNLEPEDFAVYYCQQRKNWPLTFGGGSKVEIKR |
| 6.52 | B114 (antibody, human IgG4, kappa, V domains shown, also called P59393) VH: EVQLLESGGGLVQPGGSLKLSCAASGFTFSGYAMHWVRQAPGKGLEWVAVISYDGSNKYYADSVKGRFTISRDNSKNTLYLQMNSLRAEDTAVYYCARGRGRGVFDYWGQGTLVTVSS VL: EIVLTQSPGTLSLSPGERATLSCRASQSVSKYLAWYQQKPGQAPRLLIYDVSNRATGIPARFSGSGSGTDFTLTISSLEPEDFAVYYCQQRRSWPLTFGGGTKVEIRR |
| 7.17 | B117 (antibody, human IgG4, kappa, V domains shown, also called P59394) VH: EVQLLESGGGLVQPGGSLRLSCAASGFTFSSYSMNWVRQAPGKGLEWVSYISSSSSTIYYADSVKGRFTISRDNAKNSLYLQMNSLRDEDTAVYYCARDRTLGYWGQGTLVTVSS VL: NIQLTQSPSSVSASVGDRVTISCRASQGIGRWLAWYQQKPGKAPKLLIYAASNLQSGVPSRFSGSGSGTDFTLTISSLQPEDFATYYCQQANSFPRTFGPGTKVDIKR |
| 5.74 | B307 (antibody, human IgG4, kappa, V domains shown, also called P59399) VH: QLQLQESGPGLVKPSQTLSLTCTVSGGSISSGGYYWSWIRQHPGKGLEWIGYIYYSGSTYYNPSLKSRVTISVDTSKNQFSLKLSSVTAADTAVYYCARMGRIAASNYYGMDVWGQGTTVTVSS VL: DIQLTQSPSFLSASVGDRVTITCRASQGISSQLAWYQQEPGKAPKLLIYAASTLQSGVPSRFSGSGSGTEFTLTISSLQPEDFATYYCQQVNAYPLTFGPGTKVDIKR |
| 6.38 | B109 (antibody, human IgG4, kappa, V domains shown, also called P59392) VH: EVQLLESGGGLVKPGGSLRLSCAASGFTFSSYSMNWVRQAPGKGLEWVSSISSSSSYIYYADSVKGRFTISRDNAKNSLYLQMNSLRDGDTAIYYCVRRLWEAPGIGPFDVWGHGTMVTVSS VL: not shown |
| 8.88 | B201 (antibody, human IgG4, kappa, V domains shown, also called P59398) VH: EVQLVESGGGLVQPGGSLRLSCAASGFTFSSYAMHWVRQAPGKGLEWVSAISGSGDSTYYADSVKGRFSISRDNSKNTLYLQMNSLRAEDTAVYYCAKGSRRSGFNLFDYWGQGTLVTVSS VL: not shown |
